The text below walks through data of patent US20110123440A1.

This assay has as its target human FcRn (soluble recombinant, 6XHis, co-expressed with beta2 microglobulin) (human). The experiment in a line: luminex binding assay, pH 6.

human FcRn (soluble recombinant, 6XHis, co-expressed with beta2 microglobulin) (human), sequence (P55899 other isoform, or with tags, fused parts or gaps): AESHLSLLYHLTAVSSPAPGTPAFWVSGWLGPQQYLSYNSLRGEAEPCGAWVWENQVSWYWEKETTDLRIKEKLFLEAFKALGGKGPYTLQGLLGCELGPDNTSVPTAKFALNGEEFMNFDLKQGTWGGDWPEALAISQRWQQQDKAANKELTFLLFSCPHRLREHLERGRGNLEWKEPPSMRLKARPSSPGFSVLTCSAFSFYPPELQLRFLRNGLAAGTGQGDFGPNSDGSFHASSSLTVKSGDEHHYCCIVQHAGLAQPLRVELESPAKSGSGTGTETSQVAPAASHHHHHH

Consider “anti-CD30 antibody (5F11) Fc variant S354R”, for which the FcRn binding at pH 6 (fold difference vs wild type anti-CD30) (fold vs wild type) was determined as 1.3.
The figure for “anti-CD30 antibody (5F11) Fc variant G446W” is 1.1.
Turning to “anti-CD30 antibody (5F11) Fc variant S426W”, the FcRn binding at pH 6 (fold difference vs wild type anti-CD30) (fold vs wild type) came out at 0.6.
The figure for “anti-CD30 antibody (5F11) Fc variant S254W” is 0.2.
The value for “anti-CD30 antibody (5F11) Fc variant A378P” was 0.6.
The figure for “anti-CD30 antibody (5F11) Fc variant P247I” is 1.1.
With “anti-CD30 antibody (5F11) Fc variant P396I”, the FcRn binding at pH 6 (fold difference vs wild type anti-CD30) (fold vs wild type) amounted to 1.4.
For “anti-CD30 antibody (5F11) Fc variant E345W”, the FcRn binding at pH 6 (fold difference vs wild type anti-CD30) (fold vs wild type) was determined as 1.3.
Consider “anti-CD30 antibody (5F11) Fc variant E356K”, for which the FcRn binding at pH 6 (fold difference vs wild type anti-CD30) (fold vs wild type) is 1.4.
The figure for “anti-CD30 antibody (5F11) Fc variant F404W” is 1.7.
The figure for “anti-CD30 antibody (5F11) Fc variant D376T” is 1.6.
